This test deals with hemagglutinin (HA) of influenza A/Env/MPJ193/09 (H3N?) (influenza A virus). Kind of test: cell-based or functional assay.

For MD3606 (Fc fusion), the Average neutralization titers worked out at 11.8 nM.

The values are drawn from US20190359693A1.
